Test results published in PMC4626089, “In Vitro Mutational Analysis of the β2 Adrenergic Receptor, an In Vivo Surrogate Odorant Receptor” (PLoS ONE, 2015).

Assay: GFP-labeled filopodia count per OP6 cell
Details: glycan lost; control: WT mβ2AR::GFP

mouse β2-adrenergic-receptor (mβ2AR): No-NxS
localisation_or_trafficking, other: GFP-labeled filopodia per cell: no change, 13.6 ±8.3 vs 31.8 ±16.2
